Non-standard residues stand in square brackets, D forms with d. Residues, ends and D or L forms follow the SMILES beside them. No end group written: not given here.
B1: [D-Ala^2]N/OFQ(1–13)-NH2 (peptide)
peptide: F[dA]GFTGARKSARK-NH2
modifications: N-terminus assumed
SMILES: C[C@H](NC(=O)CNC(=O)[C@@H](NC(=O)[C@H](Cc1ccccc1)NC(=O)CNC(=O)[C@@H](C)NC(=O)[C@@H](N)Cc1ccccc1)[C@@H](C)O)C(=O)N[C@@H](CCCNC(=N)N)C(=O)N[C@@H](CCCCN)C(=O)N[C@@H](CO)C(=O)N[C@@H](C)C(=O)N[C@@H](CCCNC(=N)N)C(=O)N[C@@H](CCCCN)C(N)=O

biological target: N/OFQ peptide (NOP) receptor fused to Renilla luciferase (UniProt P41146)
Sequence (P41146 whole entry, the tested form may be a part): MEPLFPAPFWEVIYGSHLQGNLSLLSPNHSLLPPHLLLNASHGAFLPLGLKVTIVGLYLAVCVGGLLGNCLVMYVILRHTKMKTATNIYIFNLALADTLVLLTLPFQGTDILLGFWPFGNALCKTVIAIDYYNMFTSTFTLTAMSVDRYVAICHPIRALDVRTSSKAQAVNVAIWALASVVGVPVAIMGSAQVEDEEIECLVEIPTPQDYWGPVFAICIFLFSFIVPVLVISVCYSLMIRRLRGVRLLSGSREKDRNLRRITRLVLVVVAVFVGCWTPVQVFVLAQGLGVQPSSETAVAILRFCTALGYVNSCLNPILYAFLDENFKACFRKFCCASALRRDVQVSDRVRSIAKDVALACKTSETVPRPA

Question: With FGGFTGAAKSARK-NH2 [[Ala^8]N/OFQ(1–13)-NH2] as the molecule, how does the concentration ratio (EC50 of the ligand / EC50 of N/OFQ(1–13)-NH2) for promoting the NOP/G protein interaction (BRET, membranes); concentration–response curve incomplete read?
Answer: The concentration ratio (EC50 of the ligand / EC50 of N/OFQ(1–13)-NH2) for promoting the NOP/G protein interaction (BRET, membranes); concentration–response curve incomplete was 1000.

Question: Which results are given for FGGFTGARASARK-NH2 [[Ala^9]N/OFQ(1–13)-NH2]?
Answer: pEC50 for promoting the NOP/G protein interaction (BRET, membranes with NOP-RLuc and Gβ1-RGFP): 8.14 -log10 M; pEC50 for promoting the NOP/β-arrestin 2 interaction (BRET, cells with NOP-RLuc and β-arrestin 2-RGFP): 7.77 -log10 M

Question: With FGGFTGARKAARK-NH2 [[Ala^10]N/OFQ(1–13)-NH2] as the molecule, how does the pEC50 for promoting the NOP/G protein interaction (BRET, membranes with NOP-RLuc and Gβ1-RGFP) read?
Answer: Its pEC50 for promoting the NOP/G protein interaction (BRET, membranes with NOP-RLuc and Gβ1-RGFP) is 9.25 -log10 M.

Question: And the pEC50 for promoting the NOP/β-arrestin 2 interaction (BRET, cells with NOP-RLuc and β-arrestin 2-RGFP)?
Answer: Its pEC50 for promoting the NOP/β-arrestin 2 interaction (BRET, cells with NOP-RLuc and β-arrestin 2-RGFP) is 8.43 -log10 M.

Question: FGGFTGARKSAAK-NH2 [[Ala^12]N/OFQ(1–13)-NH2] was tested. Which pEC50 for promoting the NOP/G protein interaction (BRET, membranes with NOP-RLuc and Gβ1-RGFP) did it give?
Answer: Its pEC50 for promoting the NOP/G protein interaction (BRET, membranes with NOP-RLuc and Gβ1-RGFP) is 7.31 -log10 M.

Question: And the pEC50 for promoting the NOP/β-arrestin 2 interaction (BRET, cells with NOP-RLuc and β-arrestin 2-RGFP)?
Answer: The pEC50 for promoting the NOP/β-arrestin 2 interaction (BRET, cells with NOP-RLuc and β-arrestin 2-RGFP) was 6.85 -log10 M.

Question: For FGGFTGARKSARA-NH2 [[Ala^13]N/OFQ(1–13)-NH2], which pEC50 for promoting the NOP/G protein interaction (BRET, membranes with NOP-RLuc and Gβ1-RGFP) is on record?
Answer: The pEC50 for promoting the NOP/G protein interaction (BRET, membranes with NOP-RLuc and Gβ1-RGFP) was 7.91 -log10 M.

Question: What about the pEC50 for promoting the NOP/β-arrestin 2 interaction (BRET, cells with NOP-RLuc and β-arrestin 2-RGFP) of the same molecule?
Answer: Its pEC50 for promoting the NOP/β-arrestin 2 interaction (BRET, cells with NOP-RLuc and β-arrestin 2-RGFP) is 7.88 -log10 M.

Question: With AGGFTGARKSARK-NH2 [[Ala^1]N/OFQ(1–13)-NH2] as the molecule, how does the concentration ratio (EC50 of the ligand / EC50 of N/OFQ(1–13)-NH2) for promoting the NOP/G protein interaction (BRET, membranes); concentration–response curve incomplete read?
Answer: The concentration ratio (EC50 of the ligand / EC50 of N/OFQ(1–13)-NH2) for promoting the NOP/G protein interaction (BRET, membranes); concentration–response curve incomplete was 700.

Question: Which pEC50 for promoting the NOP/G protein interaction (BRET, membranes with NOP-RLuc and Gβ1-RGFP) does the source give for FAGFTGARKSARK-NH2 [[Ala^2]N/OFQ(1–13)-NH2] here?
Answer: Its pEC50 for promoting the NOP/G protein interaction (BRET, membranes with NOP-RLuc and Gβ1-RGFP) is 6.36 -log10 M.

Question: What does the source list for FGAFTGARKSARK-NH2 [[Ala^3]N/OFQ(1–13)-NH2]?
Answer: pEC50 for promoting the NOP/G protein interaction (BRET, membranes with NOP-RLuc and Gβ1-RGFP): 7.88 -log10 M; pEC50 for promoting the NOP/β-arrestin 2 interaction (BRET, cells with NOP-RLuc and β-arrestin 2-RGFP): 7.54 -log10 M

Question: How did the concentration ratio (EC50 of the ligand / EC50 of N/OFQ(1–13)-NH2) for promoting the NOP/G protein interaction (BRET, membranes); concentration–response curve incomplete turn out when FGGATGARKSARK-NH2 [[Ala^4]N/OFQ(1–13)-NH2] was run?
Answer: Its concentration ratio (EC50 of the ligand / EC50 of N/OFQ(1–13)-NH2) for promoting the NOP/G protein interaction (BRET, membranes); concentration–response curve incomplete is 1000.

biological target: N/OFQ peptide (NOP) receptor fused to Renilla luciferase (UniProt P41146); remark: another data set of the same source

Question: What does the source list for [Cha^1]N/OFQ(1–13)-NH2 (peptide)?
Answer: pEC50 for promoting the NOP/G protein interaction (BRET, membranes with NOP-RLuc and Gβ1-RGFP): 8.93 -log10 M; pEC50 for promoting the NOP/β-arrestin 2 interaction (BRET, cells with NOP-RLuc and β-arrestin 2-RGFP): 8.28 -log10 M

Question: FGGWTGARKSARK-NH2 [[Trp^4]N/OFQ(1–13)-NH2] was tested. Which pEC50 for promoting the NOP/G protein interaction (BRET, membranes with NOP-RLuc and Gβ1-RGFP) did it give?
Answer: The pEC50 for promoting the NOP/G protein interaction (BRET, membranes with NOP-RLuc and Gβ1-RGFP) was 7.63 -log10 M.

Question: And the pEC50 for promoting the NOP/β-arrestin 2 interaction (BRET, cells with NOP-RLuc and β-arrestin 2-RGFP)?
Answer: The pEC50 for promoting the NOP/β-arrestin 2 interaction (BRET, cells with NOP-RLuc and β-arrestin 2-RGFP) was 7.17 -log10 M.

Question: Which pEC50 for promoting the NOP/G protein interaction (BRET, membranes with NOP-RLuc and Gβ1-RGFP) does the source give for B1 here?
Answer: The pEC50 for promoting the NOP/G protein interaction (BRET, membranes with NOP-RLuc and Gβ1-RGFP) was 7.57 -log10 M.

Question: And the pEC50 for promoting the NOP/β-arrestin 2 interaction (BRET, cells with NOP-RLuc and β-arrestin 2-RGFP)?
Answer: The pEC50 for promoting the NOP/β-arrestin 2 interaction (BRET, cells with NOP-RLuc and β-arrestin 2-RGFP) was 7.16 -log10 M.

Question: What does the source list for FGGFNGARKSARK-NH2 [[Asn^5]N/OFQ(1–13)-NH2]?
Answer: pEC50 for promoting the NOP/G protein interaction (BRET, membranes with NOP-RLuc and Gβ1-RGFP): 8.03 -log10 M; pEC50 for promoting the NOP/β-arrestin 2 interaction (BRET, cells with NOP-RLuc and β-arrestin 2-RGFP): 7.56 -log10 M

Question: How did the pEC50 for promoting the NOP/G protein interaction (BRET, membranes with NOP-RLuc and Gβ1-RGFP) turn out when FGGFVGARKSARK-NH2 [[Val^5]N/OFQ(1–13)-NH2] was run?
Answer: The pEC50 for promoting the NOP/G protein interaction (BRET, membranes with NOP-RLuc and Gβ1-RGFP) was 7.94 -log10 M.

Question: And the pEC50 for promoting the NOP/β-arrestin 2 interaction (BRET, cells with NOP-RLuc and β-arrestin 2-RGFP)?
Answer: The pEC50 for promoting the NOP/β-arrestin 2 interaction (BRET, cells with NOP-RLuc and β-arrestin 2-RGFP) was 7.38 -log10 M.

biological target: N/OFQ peptide (NOP) receptor fused to Renilla luciferase (UniProt P41146); remark: another data set of the same source

Question: What does the source list for [AC3C^7]N/OFQ-NH2 (peptide)?
Answer: pEC50 for promoting the NOP/G protein interaction (BRET, membranes with NOP-RLuc and Gβ1-RGFP): 7.67 -log10 M; pEC50 for promoting the NOP/β-arrestin 2 interaction (BRET, cells with NOP-RLuc and β-arrestin 2-RGFP): 7.56 -log10 M

Question: Which results are given for [AC5C^11]N/OFQ-NH2 (peptide)?
Answer: pEC50 for promoting the NOP/G protein interaction (BRET, membranes with NOP-RLuc and Gβ1-RGFP): 8.61 -log10 M; pEC50 for promoting the NOP/β-arrestin 2 interaction (BRET, cells with NOP-RLuc and β-arrestin 2-RGFP): 8.22 -log10 M

Question: For [AC5C^7]N/OFQ-NH2 (peptide), which pEC50 for promoting the NOP/G protein interaction (BRET, membranes with NOP-RLuc and Gβ1-RGFP) is on record?
Answer: Its pEC50 for promoting the NOP/G protein interaction (BRET, membranes with NOP-RLuc and Gβ1-RGFP) is 8.1 -log10 M.

Question: And the pEC50 for promoting the NOP/β-arrestin 2 interaction (BRET, cells with NOP-RLuc and β-arrestin 2-RGFP)?
Answer: The pEC50 for promoting the NOP/β-arrestin 2 interaction (BRET, cells with NOP-RLuc and β-arrestin 2-RGFP) was 8.1 -log10 M.

Question: What does the source list for [Aib^7]N/OFQ-NH2 (peptide)?
Answer: pEC50 for promoting the NOP/G protein interaction (BRET, membranes with NOP-RLuc and Gβ1-RGFP): 8.92 -log10 M; pEC50 for promoting the NOP/β-arrestin 2 interaction (BRET, cells with NOP-RLuc and β-arrestin 2-RGFP): 8.4 -log10 M

Question: With [Aib^11]N/OFQ-NH2 (peptide) as the molecule, how does the pEC50 for promoting the NOP/G protein interaction (BRET, membranes with NOP-RLuc and Gβ1-RGFP) read?
Answer: Its pEC50 for promoting the NOP/G protein interaction (BRET, membranes with NOP-RLuc and Gβ1-RGFP) is 8.35 -log10 M.

Question: What about the pEC50 for promoting the NOP/β-arrestin 2 interaction (BRET, cells with NOP-RLuc and β-arrestin 2-RGFP) of the same molecule?
Answer: The pEC50 for promoting the NOP/β-arrestin 2 interaction (BRET, cells with NOP-RLuc and β-arrestin 2-RGFP) was 8.21 -log10 M.

biological target: T1, mu opioid receptor (mu-RLuc/Gβ1-RGFP) (Homo sapiens, UniProt P35372); assay type: biochemical
T1 construct: expressed in transfected cells; host or cells: SH-SY5Y (enriched plasma membranes)
Protocol: For this study, human embryonic kidney (HEK293) cells, permanently co-expressing the different pairs of fusion proteins NOP-RLuc/Gβ1-RGFP and NOP-RLuc/β-arrestin 2-RGFP, and SH-SY5Y cells stably, co-expressing the different pairs of fusion proteins mu-RLuc/Gβ1-RGFP and mu-RLuc/β-arrestin 2-RGFP or delta-RLuc/Gβ1-RGFP and delta-RLuc/β-arrestin 2-RGFP, were used. Cells were prepared and cultured, as described previously.[19],[23] […] The protein concentration in membrane preparations was determined using the QPRO-BCA kit (Cyanagen Srl, Bologna, IT) and the Ensight (PerkinElmer, Waltham, USA) in the spectrophotometer mode.
Luminescence in membranes was recorded in 96-well untreated white opaque microplates, while in whole cells, it was recorded in 96-well sterile poly-D-lysine-coated white opaque microplates (PerkinElmer, Waltham, MA, USA) using the luminometer Victor 2030 (PerkinElmer, Waltham, MA, USA). […] Coelenterazine at a final concentration of 5 μM was injected 15 min prior to reading the cell plate. Different concentrations of ligands in 20 μL of PBS–BSA 0.01% were added and incubated 5 min before reading luminescence. […] The BRET ratio was measured 15 min after agonist injection. […]
The pharmacological terminology adopted in this paper is consistent with IUPHAR recommendations.[68] All data are expressed as the mean ± sem of five independent experiments made in duplicate. […]

T1 sequence (P35372 whole entry, species assumed): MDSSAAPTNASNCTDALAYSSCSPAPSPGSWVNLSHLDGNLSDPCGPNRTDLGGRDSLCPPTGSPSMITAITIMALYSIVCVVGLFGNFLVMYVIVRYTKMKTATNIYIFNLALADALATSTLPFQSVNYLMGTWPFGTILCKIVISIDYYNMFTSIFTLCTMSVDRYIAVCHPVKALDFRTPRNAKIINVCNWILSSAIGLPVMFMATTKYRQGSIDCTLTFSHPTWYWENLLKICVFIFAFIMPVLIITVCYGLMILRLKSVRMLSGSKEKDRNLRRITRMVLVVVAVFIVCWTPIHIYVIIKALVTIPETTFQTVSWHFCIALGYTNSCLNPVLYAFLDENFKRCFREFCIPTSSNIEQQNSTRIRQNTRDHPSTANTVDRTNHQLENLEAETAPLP

Question: CSCC[C@H](NC(=O)[C@H](CC(C)C)NC(=O)[C@H](Cc1c[nH]cn1)NC(=O)[C@H](Cc1ccccc1)NC(=O)[C@@H](CCSC)NC(=O)[C@@H](N)Cc1ccc(O)cc1)C(=O)N[C@@H](CC(=O)O)C(N)=O [Deltorphin A] (H-Y[dM]FHLMD-NH2) was tested. Which “mu/G protein pEC50 (CL95%)” value did it give?
Answer: Its value is “crc incomplete”.
